The values that follow come from patent US20200157212A1 (Pfizer, published 2020).

This test has as its target T1, Terbium (Tb) labeled-SNAP tagged ROBO2 expressed on HEK293 cells (Homo sapiens (Human), UniProt Q9HCK4 22-1378, terbium label on the SNAP tag).
T1 construct: also called Tb-labeled ROBO2 cells; ROBO2 expressing cells; not shown: SNAP tag
T1 sequence: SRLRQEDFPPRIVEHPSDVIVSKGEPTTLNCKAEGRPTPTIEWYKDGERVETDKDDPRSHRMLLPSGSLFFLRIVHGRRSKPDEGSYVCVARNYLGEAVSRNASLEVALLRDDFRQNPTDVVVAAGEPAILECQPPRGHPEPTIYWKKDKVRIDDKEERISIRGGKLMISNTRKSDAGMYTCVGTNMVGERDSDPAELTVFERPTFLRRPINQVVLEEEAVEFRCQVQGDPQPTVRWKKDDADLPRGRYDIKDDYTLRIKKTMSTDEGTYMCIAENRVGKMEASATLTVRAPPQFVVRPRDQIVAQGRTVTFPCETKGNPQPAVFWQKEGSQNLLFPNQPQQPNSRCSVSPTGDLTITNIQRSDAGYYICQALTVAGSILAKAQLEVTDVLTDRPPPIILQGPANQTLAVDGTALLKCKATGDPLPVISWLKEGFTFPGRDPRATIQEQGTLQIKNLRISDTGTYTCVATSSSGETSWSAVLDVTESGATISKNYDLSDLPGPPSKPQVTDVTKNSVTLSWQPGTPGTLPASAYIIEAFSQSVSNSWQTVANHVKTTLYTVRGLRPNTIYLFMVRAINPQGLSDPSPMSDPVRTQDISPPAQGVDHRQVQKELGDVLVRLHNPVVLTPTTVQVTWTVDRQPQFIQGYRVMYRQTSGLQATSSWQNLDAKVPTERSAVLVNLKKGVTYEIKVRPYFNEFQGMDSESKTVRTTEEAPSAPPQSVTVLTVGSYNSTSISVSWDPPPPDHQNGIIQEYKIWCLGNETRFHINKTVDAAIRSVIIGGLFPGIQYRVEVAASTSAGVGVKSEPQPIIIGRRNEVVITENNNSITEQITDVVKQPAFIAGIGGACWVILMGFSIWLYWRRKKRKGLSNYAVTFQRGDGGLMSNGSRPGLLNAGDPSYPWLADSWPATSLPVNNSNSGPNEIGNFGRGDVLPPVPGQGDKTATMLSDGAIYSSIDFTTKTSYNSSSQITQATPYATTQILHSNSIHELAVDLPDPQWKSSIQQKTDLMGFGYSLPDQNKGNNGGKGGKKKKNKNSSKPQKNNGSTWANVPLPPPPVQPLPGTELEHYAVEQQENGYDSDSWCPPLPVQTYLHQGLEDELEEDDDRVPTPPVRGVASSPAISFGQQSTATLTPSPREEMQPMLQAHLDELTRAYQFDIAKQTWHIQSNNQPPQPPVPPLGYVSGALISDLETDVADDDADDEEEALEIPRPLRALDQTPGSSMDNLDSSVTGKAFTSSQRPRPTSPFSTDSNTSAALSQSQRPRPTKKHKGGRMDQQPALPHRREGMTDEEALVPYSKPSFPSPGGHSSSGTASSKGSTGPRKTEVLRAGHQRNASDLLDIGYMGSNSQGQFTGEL
Kind of test: HTRF, 5 nM d2-SLIT2-N on Tb-SNAP-ROBO2 HEK293 cells, no antibody (maximal signal). The protocol:
In this assay, terbium (Tb) labeled-SNAP tagged ROBO2 expressing HEK293 cells were incubated with 5 nM d2-labeled SLIT-2N in the presence of 1 nM anti-ROBO2 antibodies for 1 hour. After incubation, fluorescence at 665 nm and 620 nm was measured on an Envision multilabel plate reader. […] Maximal signal was defined as the HTRF ratio of Tb-labeled ROBO2 cells with d2-labeled SLIT2-N in the absence of antibody, the minimum signal was defined as the HTRF ratio of Tb-labeled ROBO2 expressing HEK293 cells only. One nanomolar (nM) parental antibody, 93H2, was unable to block the HTRF assay, therefore this concentration was selected to identify clones with a higher affinity than 93H2 (Table 2, HTRF Ratio column). […] Antibodies derived from chain (Abcs series) or CDR shuffling (CTIR-2 series) were evaluated in 11-point, 5-fold dilution series with a top concentration of 1500 nM (Table 2 HTRF IC₅₀).
HTRF assays were run with 5 nM d2-labeled SLIT2-N and antibodies were added at 1 nM. […] Antibodies derived from chain (Abcs series) or CDR shuffling (CTIR-2 series) were evaluated in 11-point, 5-fold dilution series with a top concentration of 1500 nM, N.T. = not tested; ^cFold selectivity was calculated as Geometric Mean Fluorescent Intensity (Geo MFI) of ROBO2/Geo MFI of ROBO1 binding.

B1: SLIT2-N (ligand)
chain: QCSCSGSTVDCHGLALRSVPRNIPRNTERLDLNGNNITRITKTDFAGLRHLRVLQLMENKISTIERGAFQDLKELERLRLNRNHLQLFPELLFLGTAKLYRLDLSENQIQAIPRKAFRGAVDIKNLQLDYNQISCIEDGAFRALRDLEVLTLNNNNITRLSVASFNHMPKLRTFRLHSNNLYCDCHLAWLSDWLRQRPRVGLYTQCMGPSHLRGHNVAEVQKREFVCSGHQSFMAPSCSVLHCPAACTCSNNIVDCRGKGLTEIPTNLPETITEIRLEQNTIKVIPPGAFSPYKKLRRIDLSNNQISELAPDAFQGLRSLNSLVLYGNKITELPKSLFEGLFSLQLLLLNANKINCLRVDAFQDLHNLNLLSLYDNKLQTIAKGTFSPLRAIQTMHLAQNPFICDCHLKWLADYLHTNPIETSGARCTSPRRLANKRIGQIKSKKFRCSAKEQYFIPGTEDYRSKLSGDCFADLACPEKCRCEGTTVDCSNQKLNKIPEHIPQYTAELRLNNNEFTVLEATGIFKKLPQLRKINFSNNKITDIEEGAFEGASGVNEILLTSNRLENVQHKMFKGLESLKTLMLRSNRITCVGNDSFIGLSSVRLLSLYDNQITTVAPGAFDTLHSLSTLNLLANPFNCNCYLAWLGEWLRKKRIVTGNPRCQKPYFLKEIPIQDVAIQDFTCDDGNDDNSCSPLSRCPTECTCLDTVVRCSNKGLKVLPKGIPRDVTELYLDGNQFTLVPKELSNYKHLTLIDLSNNRISTLSNQSFSNMTQLLTLILSYNRLRCIPPRTFDGLKSLRLLSLHGNDISVVPEGAFNDLSALSHLAIGANPLYCDCNMQWLSDWVKSEYKEPGIARCAGPGEMADKLLLTTPSKKFTCQGPVDVNILAKCNPCLSNPCKNDGTCNSDPVDFYRCTCPYGFKGQDCDVPIHACISNPCKHGGTCHLKEGEEDGFWCICADGFEGENCEVNVDDCEDNDCENNSTCVDGINNYTCLCPPEYTGELCEEKLDFCAQDLNPCQHDSKCILTPKGFKCDCTPGYVGEHCDIDFDDCQDNKCKNGAHCTDAVNGYTCICPEGYSGLFCEFSPPMVLPRTSPCDNFDCQ
modifications: d2 label in the HTRF assay
notes: also called d2-labeled SLIT2-N
Regarding B1, the “HTRF Ratio” value is 11900.
